Measurements as given in the DeepSol protein solubility set.

experiment: soluble on expression in E. coli; label from the status in PepcDB or PDB records

Sequence	soluble on expression in E. coli
MKLKSNNIYEKMNQYSVVGLSLAVIRDGKLDETAAFGTLESGTNRTVTIDSIFNSCSISKFITTILILTLSDLKIVHLDEDVNDRLTSWNIPTNLFTSQKKVTLRNLLSHQSGIIDPPNSFEHYLLAQGQPNMSELLAGKTLYCSVPIEVTYKPESEFHYSDANFCIIEILLEDITGKPFNLLLEESIFQPLQMKNSTIFSPEDIDKTDAFACGHNKDGTVTNEKYPFYPFAAASGIWTTPTDLSALVIEIIHSLQGKGKLKLSQKTVQDMISPQGCSKWTGLGVFLDDLNEDLQIYSLGWGVGFQCMMICYPYRGNGAIIMTNADLGVHQMEGIIGDVLKTLSL	not soluble
MGSDKIHHHHHHMKYDIPTMTAEAVSLLKSLISIPSISREETQAADFLQNYIEAEGMQTGRKGNNVWCLSPMFDLKKPTILLNSHIDTVKPVNGWRKDPFTPREENGKLYGLGSNDAGASVVSLLQVFLQLCRTSQNYNLIYLASCEEEVSGKEGIESVLPGLPPVSFAIVGEPTEMQPAIAEKGLMVLDVTATGKAGHAARDEGDNAIYKVLNDIAWFRDYRFEKESPLLGPVKMSVTVINAGTQHNVVPDKCTFVVDIRSNELYSNEDLFAEIRKHIACDAKARSFRLNSSRIDEKHPFVQKAVKMGRIPFGSPTLSDQALMSFASVKIGPGRSSRSHTAEEYIMLKEIEEAIGIYLDLLDGLKL	not soluble
MEKKIGKLSIRVLLNTHRRNDCEIYPLIIRVVYHRRKSEYSLGWKIHTSNFSADRERVVYSSTGNLKRKDLGLINDAISQERERLLKIFAFLQQNMPGFSLSQLMDKYRMERNLRYVDAFIVREIERLRQEGRSGTAGLYLSGLYSLRRFLRGQKITFRELTYCFLTDYIHFLRMRGISENTVNMYIRNLRAVYNKAQKQGINMGCESPFRELKLQTQETAKRALCKHDIARIVSVDLSSEPLLDRARDLFMFSFYARGMPFVDIVFLKHDSIINGIIYYERNKTGQRMQVRVIPPLAALIEKYRSSYPYVLPYITSFSDRTSYMQYRYALGNVNRLLKRLGRRLHLPLVLTTYVARHSWATIAKEEGFSIASISEGLGHTSEATTQIYLQSFNSEVIDKINEQVVASIGRHI	not soluble
MGSDKIHHHHHHMRHTILFIIDGLPGGGAERVVITLAGEMAARGHQVTIASLQASLDYAIPAGVDYLLVEDRYRGPLRRQTEIRRRARQLDGALRRHFAGRRIDLAVSNLPKTDRIVAACPYLEQAWLCLHCAIQAGQLAERSGIRRWLKKRQLVRTYSGRKLITVCQALQRDVLDCGIRPARMEAIYNPFDLDWIRRRAAQPCPMDGEDFILHVGRFNHQKRHDRLLEAFKLSGYPGKLALLGQGGQAELSAIQVQAERLGVADRLVVAGFTDNPYAYMRAARALVLSSDYEGFGNVLVEALACGTPVASTNCPEGPAEILTGPLSIGLSELNGQALADAIKRVLASRPLAGPEQLAAFAQDAVVERYLALVNQ	not soluble
MAHHHHHHMEQLNDDDERENLYFVDHGRPKYKHTDLLAMLRDAQSAIIRFSEENRDIIADAVNFASTSERANTLRKLEEAYLGIVKVQAPMVRCSRPAFRKLCRLWGTDVSYTHMIMADSFTCSDAARHADFSMYAGEERLVAQIASCSGPVAAEAATLLAPYCDAIDLNCGCPQRWIIKEGLGSALLQKPEVVADMVRCIHNGLSGGVDLPCVVKMRVSNDVGRSVDFARQCEAAGCGWITVHGRTPSCSAHAPVRLDAIRTIRECVSVPVVANGGVNNPQTALKTSLTTGAGAVMSATGLLANPACFYVPREGELLLFAPQRRGVDVALEASMGPCRGADEGASTAGSENSAWLKGLPGCPVEVISDFIRLSCVTDLASKATSMHLLKMGGNYLSPTERVFLAQMHSSFSVVSALQQLGLYTQDGKFRVVESVT	soluble
MESDPMFIGFGYDRHPLVEGRRLVLAGVEIDAPLGSLGHSDGDVLSHAIIDALLGAGCLGDIGTWFPETKEYKDANSLDLLKETVKILEERGFSVVNVDATVVASIVKLSPYREKIVENLKSALETSRVNVKFKSGNTLGFEGEERGISAYAVCLVEEKGCTKST	not soluble
MAPTNKDGDVATVKAVDVLKQKAGAHHCLGNVHANLPVNKVTVHPLVLLSVVDHFNRVSKTQSVKRVVGVLLGSMKKDKTLDIGNSFAVPFDEDDKDKSTWFLDMDYLESMYGMFYKVAAKEKIVGWYHTGPKLHKNDIAINEQLKRFCPNPVLVIIDAEPKNIGLPTEAYIEVQEVHDDGTPPIKTFEHVPSDIGAEEAEEVGVEHLLRDIKDQTAGTLSQRITDQLMGLRGLQSQLESIEKYLHDIVRGTLPVNHHVIYYVQEVLNLLPDVTHPDYIVSQNVQTNDQLMCVYMGSLVRSVVALHNLIDNKISLQKAEKEQETGEAEKKKDEKDKKDKKDEKKDEKKEKDSKSSTPNTPKK	not soluble
MSLSAYSQVSIDKTMFVEGREFLHIDQAGWVAKESTSEEDNRMSKVQEMLSEKYQKDSFSIYVKQLTTGKEAGINQDEKMYAASVLKLSYLYYTQEKINEGLYQLDTTVKYVSAVNDFPGSYKPEGSGSLPKKEDNKEYSLKDLITKVSKESDNVAHNLLGYYISNQSDATFKSKMSAIMGDDWDPKEKLISSKMAGKFMEAIYNQNGFVLESLTKTDFDSQRIAKGVSVKVAHKIGDADEFKHDTGVVYADSPFILSIFTKNSDYDTISKIAKDVYEVLKEGHHHHHH	soluble
MRSKFFSFFTRASRPMKAIPPKIWFETQLKGSGLDKKFQIDELIETQSSVRVFANKKYLPDTETINEALTKVTAVNVSGDKSGYFQNGLPFPNEAGYFEKIPVGHPELLSPIERLTGSKKIVSSHSLVTASGGYPLTNPLLPYRKPIRVSIFSLAGPSFENNYLHYRLFLLDSVQKIIDSPLFSHLHDGLPIQFDEAKKELGEYDTNKLMARIRLGFPYLARFSSGGFYPSFSKSNAIIFLSEAYFRYQLEDVSLLLASVNQTGKETGKAALLKATAVGMGFFAKIDCGYDIQHIIFPYYLRAYKKLLSEHKFPWIAKIEFPIFNEIQQEQFDSIFEDYDGPTKVYRSTRDVLEFREEEIEKYLPAAINPSDAFALTGNEWGYGSVESMIGNNSSIRFDQVHHMNPLILDPSHHVEAQINKDHGVELTVNPRPQSSSSIKL	not soluble
MSLKLTSYTKTMQGRRKKQEDRYLVITDLTKYIDSNDYKTLYFYKKNPLYFYSIFDGHRGIKACEYCMSHIIKNIIYYFYNQGSAGAGTDEQIMEYIKLAFLKTDEQFLKVSKFPNHGCTIISLIIFRNKMFVANLGDCRAIGVVNISNTLKTEVLSNDHKPNDPKEKERIKKMGGDVICLQNVYRVKANARKNNKDKPSLLERLSMKEEVYLAVSRAIGDKDFKFNNVISATPDVICKEDNLYYSAHEVNYHYVVMACDGVWDTMSNKDIVKILQTYNNDPDKACSEIIKTAYAYGSQVHEGHHHHHH	not soluble
RHMASIEKVANCIRCLAADIVQGGKSGHPGTPMGMAPMSAVLWTEVMKYNSQDPDWVDRDRFVMSNGHGCALQYALLHMAGYNLTMDDLKGFRQDGSRTPGHPERFVTPGVEVTTGPLGQGIANAVGLAIAEAHLAATFNRPGYNIVDHYTYVYCGDGCLMEGVCQEALSLAGHLALEKLIVIYDSNYISIDGSTSLSFTEQCHQKYVAMGFHVIEVKNGDTDYEGLRKALAEAKATKGKPKMIVQTTTIGFGSSKQGTEKVHGAPLGEEDIANIKAKFGRDPQKKYDVDDDVRAVFRMHIDKCSAEQKAWEELLAKYTAAFPAEGAAFVAQMRGELPSGWEAKLPTNSSAIATRKASENCLAVLFPAIPALMGGSADLTPSNLTRPASANLVDFSSSSKEGRYIRFGVREHAMCAILNGLDAHDGIIPFGGTFLNFIGYALGAVRLAAISHHRVIYVATHDSIGVGEDGPTHQPVELVAALRAMPNLQVIRPSDQTETSGAWAVALSSIHTPTVLCLSRQNTEPQSGSSIEGVRHGAYSVVDVPDLQLVIVASGSEVSLAVDAAKALSGELRVRVVSMPCQELFDAQPDTYRQAVLPAGVPVVSVEAYVSFGWEKYSHAHVGMSGFGASAPAGVLYKKFGITVEEVVRTGRELAKRFPDGTAPLKNSSFSKM	soluble
MAIADEFRQLQTRLLECWEGTETFIPELPRGPGGIERDILVVPSLSFPQPELGKITGYTHYEERQLYTLIQLRNPRTRMIYVTSQPLHPSIVDYYLDLLPGVPSCHARDRLLLLATYDRSDKPLTAKILERPRLLERIRQALRPNQAYMVCFNSTPLERELAVRLGVPLYSTDPDLLYWGTKAGSRELFAAAGIRHPIGSGFLQGVPELVRAIAHLQEKCPELQQLVVKLNEAFSGEGNALLDLRPLRPLGSPHTPDHLQRIENSLEDMVFQAPNETWASYRQRFTDLGGIVEAFVEGTVKRSPSVQGCITPKGSVEIVSTHEQLLNAPTGQIFIGCEFPAHADYRQQLQELGQKVGTYLAQQGVIGCFSVDVVATQTTEGWELYAIEINLRKGGTTHPFMTLKFLTDGHYELASGRFYSKHRRPKYYIASDNLCQPHYRGLLPNDLLDMIARYHLHFDSSTETGTVFHLMGALSEFGKLGLVSIGNTPEEAQAIYNQTIGVLDAAALLEHHHHHH	not soluble
GAADPVVVPANMEPLTIEGNRFVTLCIMIRTTPWEVSRDVKLHPRDEVDWHTLEGVRALREAFATNNPNGRLTWGFTMNALEDGRKNYREIRDYVVECQKKYGDEVTYFPGYFPAMYLPRERVNREMSEAIEIISKMVGNGYRPQSIMGGFLSADNLRYLAEKENIHVAHAVIWSQHNIDGGGADGSPSYPFYPSTEHFCKPAQGKSDFIDCVNLDGWTMDFICARRSGQTGHGIDGYNSRRGVGPIETYKGWGLDLGHREVMHTEAIHFDKGLELNGFGWVANIWEAQMVHEFGKDLICDAMKMWVTGTKERWPDTHFVTFGEFGELWRKQYKSNDDWNYRFVERGSGLGDSYNNLEIKWFMNKEFRLALLRDWHTKNSPAYVIDFTRYDLQAHEPADPSPEKPAKDWSLINKINQKALRPQDKPVLIDKLEKEDQDLIRKYYPELLK	soluble
MGSDKIHHHHHHMNREVFITCAVTGSGGSQDRSPHVPRSPKQIADSAIDAAKAGAAIVHCHVRDPETGKPRRDVHLYREVTERIRDANVDVVLNLTAGMGGDMVFGSPEAPLPLNEKGTDMGGATNRMEHVRQCLPEICTLDCGTMNFAEADYVMTNTPGMLRAMGGMMTALGVKPEIEAFDTGHLWFAKQLVEEKVLNPDALVQLCMGVPWGAPDDLNTFMAMVNNVPSTWNWSAFAIGRNQMAYAAAAVLAGGNVRVGLEDNLWLDKGVLATNAQLVERAASIVTNLGARILGPEEVRKKLNLTKRAPIAAAA	not soluble
MSLTDPVKIYQRKWIVGGWMKRSEIRKALEAWFDVERYEAIETLTLQQFYVEVERRILAYRMLLSRNTIPTFNRLMLDDYRNKILSGEIFFSGDTATIGHELARTYAVNPTTRSHAQFYAKTLSLTEATPELSGLSQSEFLSEYLKETSLNNLSRITVDIHLEEASTEEIIEHLKVLIPQWKRQLKMTSPAPREYRFGKSTFRKIIDYRLIPMMDLIFWGEDNGIKIPLSLISSLLHEDSDNDRDEGMLKATDYPLAMAFLTDASYLKSLEDYMMENNHLKDSPVEKHVEDDRNEGHHHHHH	not soluble
AKDAVLSVDGIIVARSSNEITDLIPGATLALSGKTTDPATLSVSRDTQLAEAAMTYMVEELNATMKLLGELTRRSTDGSGSGELAGDRVVETLKRQVTALIGQPLTGHGEKPVYLSQLGVSTNRDGSLSFNASAFQKAFEKTPQIFDAMFTDSLTAITPGASIAGKAASSAASGDYIFRLDPVTGEATVGGGATLALPGANGASQYLVLSGGLAGVMVSVESGVTDATLRFGRSFATQLQALLDTAAGQNGAISDREGQIGKVAEEQAKVIEALDARAAKLESRYLAQFTAMEQAVSRMKSTGTYLENLISAWNKD	not soluble
